In paper PMC2756758:
Several values for one entry are separate records, joined by “and”; a condition that tells them apart may be missing. Equal values may be shown once.

Target: T1, Myc-ArPIKfyve^WT (human), Q08AM6
T1 chain: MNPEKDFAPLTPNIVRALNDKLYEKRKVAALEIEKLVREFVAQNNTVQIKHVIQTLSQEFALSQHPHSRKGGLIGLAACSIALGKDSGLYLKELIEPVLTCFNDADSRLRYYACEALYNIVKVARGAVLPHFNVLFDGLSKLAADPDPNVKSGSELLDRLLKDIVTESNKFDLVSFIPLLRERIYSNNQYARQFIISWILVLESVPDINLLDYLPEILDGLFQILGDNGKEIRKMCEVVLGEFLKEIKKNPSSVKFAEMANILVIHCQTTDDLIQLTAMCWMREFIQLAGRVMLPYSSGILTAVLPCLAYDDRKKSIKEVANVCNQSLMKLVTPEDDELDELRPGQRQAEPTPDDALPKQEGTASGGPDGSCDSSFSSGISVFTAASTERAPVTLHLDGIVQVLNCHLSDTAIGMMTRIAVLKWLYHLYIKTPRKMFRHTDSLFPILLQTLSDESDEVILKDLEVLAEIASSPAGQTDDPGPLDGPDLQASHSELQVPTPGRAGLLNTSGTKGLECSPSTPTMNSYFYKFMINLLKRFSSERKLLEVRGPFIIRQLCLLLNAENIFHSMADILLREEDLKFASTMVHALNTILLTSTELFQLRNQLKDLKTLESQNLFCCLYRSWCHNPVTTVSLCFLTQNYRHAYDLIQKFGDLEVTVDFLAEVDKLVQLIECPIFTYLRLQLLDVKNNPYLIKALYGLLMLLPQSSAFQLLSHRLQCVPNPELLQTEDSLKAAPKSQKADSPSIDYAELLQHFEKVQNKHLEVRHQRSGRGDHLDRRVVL
Experiment: cross-linking
Conditions: remark: other sources report otherwise

B1: Myc-ArPIKfyve^WT, Q08AM6 1-782 (natural protein)
chain: MNPEKDFAPLTPNIVRALNDKLYEKRKVAALEIEKLVREFVAQNNTVQIKHVIQTLSQEFALSQHPHSRKGGLIGLAACSIALGKDSGLYLKELIEPVLTCFNDADSRLRYYACEALYNIVKVARGAVLPHFNVLFDGLSKLAADPDPNVKSGSELLDRLLKDIVTESNKFDLVSFIPLLRERIYSNNQYARQFIISWILVLESVPDINLLDYLPEILDGLFQILGDNGKEIRKMCEVVLGEFLKEIKKNPSSVKFAEMANILVIHCQTTDDLIQLTAMCWMREFIQLAGRVMLPYSSGILTAVLPCLAYDDRKKSIKEVANVCNQSLMKLVTPEDDELDELRPGQRQAEPTPDDALPKQEGTASGGPDGSCDSSFSSGISVFTAASTERAPVTLHLDGIVQVLNCHLSDTAIGMMTRIAVLKWLYHLYIKTPRKMFRHTDSLFPILLQTLSDESDEVILKDLEVLAEIASSPAGQTDDPGPLDGPDLQASHSELQVPTPGRAGLLNTSGTKGLECSPSTPTMNSYFYKFMINLLKRFSSERKLLEVRGPFIIRQLCLLLNAENIFHSMADILLREEDLKFASTMVHALNTILLTSTELFQLRNQLKDLKTLESQNLFCCLYRSWCHNPVTTVSLCFLTQNYRHAYDLIQKFGDLEVTVDFLAEVDKLVQLIECPIFTYLRLQLLDVKNNPYLIKALYGLLMLLPQSSAFQLLSHRLQCVPNPELLQTEDSLKAAPKSQKADSPSIDYAELLQHFEKVQNKHLEVRHQRSGRGDHLDRRVVL
  stoichiometry N: 2 and 3
